Test results taken from patent US20240035008.

Test system: R2Tg (Taeniopygia guttata)
Experiment: cell_activity
Conditions: homology-guided insertion without Cas9; RLE and RT dependent (Example 10 reports ~0.5%)

TCCTGAGTCGTGCTGCGTCGACAACGGTAGTGACGCGTATTGCCTGGAGGGCGGACGCCGGCATTCGCCGCGTGGTTCCCAGCGACCTGTATCCCCTCGT (double strand) [NOLC1 target (homology arms)]
activity: 0.1%
